Consider one molecule from PMC4368798, “Protein-Binding RNA Aptamers Affect Molecular Interactions Distantly from Their Binding Sites” (PLoS ONE, 2015).

The assay concerns the target T1, Human uPAR (uPA receptor), recombinant (human, UniProt Q03405 23-305).
T1 construct: probably a soluble form without the GPI anchor (surmise)
The assay can be described thus: SPR; uPAR coupled to the sensor surface (1000 RU, 15 ug/mL in 10 mM Na acetate pH 4.5); 4 nM purified uPA variant (pro-uPA, ATF or GFD) passed over with or without RNA aptamer; bound amount after 80 s injection. The following applies: both partners purified.

T1 sequence (Q03405 23-305): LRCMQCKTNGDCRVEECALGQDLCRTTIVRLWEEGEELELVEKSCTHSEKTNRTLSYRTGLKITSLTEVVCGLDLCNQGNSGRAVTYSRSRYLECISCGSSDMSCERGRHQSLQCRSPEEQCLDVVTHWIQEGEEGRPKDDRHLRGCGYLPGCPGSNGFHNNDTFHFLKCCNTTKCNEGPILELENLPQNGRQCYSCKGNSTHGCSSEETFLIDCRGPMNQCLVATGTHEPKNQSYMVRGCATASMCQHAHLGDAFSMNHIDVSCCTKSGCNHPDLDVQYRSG

B1: GFD^4-43 domain of uPA (domain or fragment, human, UniProt P00749 24-63, looked up)
chain: LHQVPSNCDCLNGGTCVSNKYFSNIHWCNCPKKFGGQHCE
notes: human uPA epidermal growth factor-like domain, residues 4-43; numbers count on: the mature protein; also called growth factor domain; source: excised from recombinant pro-uPA by Glu-C digestion, purified by size exclusion chromatography
B1: the binding result is listed as “binds”.
